Data from US20220073631A1 (QYUNS THERAPEUTICS, published 2022).

Columns and labels:
[1] = target: T1, hIL-4Rα-ECD (wild-type hIL-4Rα extracellular domain with C-terminus his-tag) (human, UniProt P24394 26-232); assay: SPR, Biacore T200, by the methods of Example 2; mean of three experiments
T1 construct: Made in HEK 293F cells and purified on nickel; not shown: C-terminal his-tag
Protocol: (§1) The protein A was chemically coupled to a CM5 chip, and an appropriate amount of the antibody was immobilized by a capture method such that the Rmax was less than 50 RU and the flow rate for the capture was 10 μl/min. The antigen was subject to gradient dilution, and the flow rate in the instrument was switched to 30 μl/min. The antigen was flowed through the reference channel and the channel with the immobilized antibody sequentially in an ascending order of concentration, and the running buffer was flowed through as a negative control. After each binding and dissociation was complete, the chip was regenerated with glycine, pH 1.5. Fitting was performed with the build-in software in the instrument according to a 1:1 binding model. The binding rate constant kₐ, the dissociation rate constant kd, and the equilibrium dissociation constant KD values of the antibody were calculated. Dupilumab was obtained by purchasing a commercially available medicine.
(§2) To further narrow down the key amino acids that PD2-31 binds to, multiple mutants of hIL-4Rα were designed in Loop 2 (V40FLLSEA46) and Loop 3 (M65[…]73) (Table 2). The wild-type hIL-4Rα (hIL-4Rα-ECD) and hIL-4Rα mutants were prepared using standard techniques. Briefly, the expression plasmids containing the extracellular domain of wild-type hIL-4Rα and different mutated hIL-4Rα were constructed and transfected into HEK 293F cells. After expression, the extracellular domain of wild-type hIL-4Rα and hIL-4Rα mutants with C-terminus his-tag were purified by Nickel chromatography. Purified proteins of wild-type hIL-4Rα and hIL-4Rα mutants were analyzed for interaction with PD2-31 and Dupilumab. The interaction was studied by Biacore T200, according to the methods in Example 2.

[2] = target: IL-4Rα on human cells (HEK Blue IL-4/IL-13, A549, TF-1, HFL-1, PBMCs) (human, UniProt P24394 26-825); assay: cell-based or functional assay
hIL-4Rα-Mu244 = target: T2, hIL-4Rα-Mu244 (human, UniProt P24394 26-232); assay: SPR, Biacore T200, by the methods of Example 2
T2 construct: Printed positions fit the mature protein; also called S70Q/A71L/D72R; not shown: C-terminal his-tag
T2 chain: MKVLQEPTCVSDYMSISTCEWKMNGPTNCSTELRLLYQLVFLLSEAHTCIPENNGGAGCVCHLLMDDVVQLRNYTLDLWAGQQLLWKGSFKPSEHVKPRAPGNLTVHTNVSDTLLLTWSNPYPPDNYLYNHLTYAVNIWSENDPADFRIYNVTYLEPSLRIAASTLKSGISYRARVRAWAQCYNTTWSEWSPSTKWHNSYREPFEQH
Protocol: as §1, §2

hIL-4Rα-Mu242 = target: T3, hIL-4Rα-Mu242 (human, UniProt P24394 26-232); assay: SPR, Biacore T200, by the methods of Example 2
T3 construct: Printed positions fit the mature protein; also called V68R/V69F/S70Q; not shown: C-terminal his-tag
T3 chain: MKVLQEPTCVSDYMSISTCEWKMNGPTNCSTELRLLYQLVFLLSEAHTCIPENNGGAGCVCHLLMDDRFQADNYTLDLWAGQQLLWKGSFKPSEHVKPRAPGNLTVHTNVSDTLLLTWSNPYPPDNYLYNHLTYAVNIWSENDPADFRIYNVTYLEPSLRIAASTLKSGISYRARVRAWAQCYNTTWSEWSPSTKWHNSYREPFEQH
Protocol: as §1, §2

hIL-4Rα-Mu243 = target: T4, hIL-4Rα-Mu243 (human, UniProt P24394 26-232); assay: SPR, Biacore T200, by the methods of Example 2
T4 construct: Printed positions fit the mature protein; also called V69F/S70Q/A71L; not shown: C-terminal his-tag
T4 chain: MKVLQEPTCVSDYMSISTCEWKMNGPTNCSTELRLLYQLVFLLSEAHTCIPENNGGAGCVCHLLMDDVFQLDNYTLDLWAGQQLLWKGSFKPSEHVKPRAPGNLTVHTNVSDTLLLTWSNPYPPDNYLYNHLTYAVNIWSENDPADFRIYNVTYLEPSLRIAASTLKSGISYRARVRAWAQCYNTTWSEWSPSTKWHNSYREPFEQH
Protocol: as §1, §2

hIL-4Rα-Mu239 = target: T5, hIL-4Rα-Mu239 (human, UniProt P24394 26-232); assay: SPR, Biacore T200, by the methods of Example 2
T5 construct: Printed positions fit the mature protein; also called M65I/D66A/D67A; not shown: C-terminal his-tag
T5 chain: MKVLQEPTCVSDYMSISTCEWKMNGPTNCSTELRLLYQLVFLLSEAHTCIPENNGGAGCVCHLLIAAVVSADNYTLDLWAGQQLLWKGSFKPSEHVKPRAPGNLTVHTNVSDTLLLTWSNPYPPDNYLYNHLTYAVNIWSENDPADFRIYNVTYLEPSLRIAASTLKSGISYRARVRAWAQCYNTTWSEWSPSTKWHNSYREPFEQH
Protocol: as §1, §2

hIL-4Rα-Mu453 = target: T6, hIL-4Rα-Mu453 (human, UniProt P24394 26-232); assay: SPR, Biacore T200, by the methods of Example 2
T6 construct: Printed positions fit the mature protein; also called D66A/D67A; not shown: C-terminal his-tag
Protocol: as §1, §2

[3] = target: T7, human IL-4Rα (Shanghai Novoprotein Technology Co., Ltd) (human, UniProt P24394 26-232); assay: SPR, Biacore T200, antibody captured on protein A, antigen as analyte, 25 C, 1:1 model
T7 construct: Bought protein; also called hIL-4Rα; human interleukin-4 receptor alpha
Protocol: as §1

B1: QX005N (PD2-31) (antibody, V domains shown)
VH: EVQLVESGGGLVQPGGSLRLSCAASGIDLRTNSMSWVRQAPGKGLEWVGIIGSSGYMDYASWAKGRFTISRDNSKNTLYLQMNSLRAEDTAVYYCARHGDSSSFALWGQGTLVTVSS
VL: DIQMTQSPSSLSASVGDRVTITCRASESVYKNNRLSWYQQKPGKAPKLLIYEASKVASGVPSRFSGSGSGTDFTLTISSLQPEDFATYYCAGAYRGNIYPFGQGTKVEIK
notes: Humanized from rabbit clone #2, expressed as a full antibody in ExpiCHO-S cells (heavy chain 48.5 kDa, light chain 23.7 kDa)
Kd [1]: 0.169 nM
koff [1]: 0.000134 s⁻¹
kon [1]: 779000 M⁻¹ s⁻¹
IC50, IL-4-induced CCL-11 release activity in HFL-1 cells (FIG. 7(A)) [2]: 0.0431 mg/L
IC50, IL-4-induced CCL-17 release activity in A549 cells (FIG. 5(A)) [2]: 0.0326 mg/L
IC50, IL-4-induced CCL-17 release activity in PBMCs (FIG. 9(A)) [2]: 0.0248 mg/L
IC50, IL-4-induced STAT6 phosphorylation activity in HEK Blue IL-4/IL-13 cells (FIG. 4(A)) [2]: 0.00319 mg/L
IC50, IL-4-induced proliferation activity of TF-1 cells (FIG. 6(A)) [2]: 0.0139 mg/L
IC50, IL-13-induced CCL-11 release activity in HFL-1 cells (FIG. 7(C)) [2]: 0.0385 mg/L
IC50, IL-13-induced CCL-17 release activity in A549 cells (FIG. 5(C)) [2]: 0.0289 mg/L
IC50, IL-13-induced CCL-17 release activity in PBMCs (FIG. 9(C)) [2]: 0.0686 mg/L
IC50, IL-13-induced STAT6 phosphorylation activity in HEK Blue IL-4/IL-13 cells (FIG. 4(C)) [2]: 0.00878 mg/L
IC50, IL-13-induced proliferation activity of TF-1 cells (FIG. 6(C)) [2]: 0.0155 mg/L
Kd (hIL-4Rα-Mu244): 1.1 nM
koff (hIL-4Rα-Mu244): 0.000104 s⁻¹
kon (hIL-4Rα-Mu244): 94500 M⁻¹ s⁻¹
Kd (hIL-4Rα-Mu242): 0.979 nM
koff (hIL-4Rα-Mu242): 0.000138 s⁻¹
kon (hIL-4Rα-Mu242): 141000 M⁻¹ s⁻¹
Kd (hIL-4Rα-Mu243): 0.131 nM
koff (hIL-4Rα-Mu243): 9.45e-05 s⁻¹
kon (hIL-4Rα-Mu243): 723000 M⁻¹ s⁻¹
Kd (hIL-4Rα-Mu239): 0.163 nM
koff (hIL-4Rα-Mu239): 2.71e-05 s⁻¹
kon (hIL-4Rα-Mu239): 166000 M⁻¹ s⁻¹
Kd (hIL-4Rα-Mu453): 0.663 nM
koff (hIL-4Rα-Mu453): 0.000118 s⁻¹
kon (hIL-4Rα-Mu453): 178000 M⁻¹ s⁻¹
Kd [3]: 0.378 nM
koff [3]: 0.000236 s⁻¹
kon [3]: 612000 M⁻¹ s⁻¹
